± gives the uncertainty stated by the source.
Experiment: protein stability index of a GFP-peptide fusion (yeast GPS) (PSI 1-4); higher = more stable; sorted into four equal gates, so the index is relative within each strain
Conditions: san1∆
How it was run: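 The protein stability index combines read frequencies across sorting gates, each weighted by its gate number and then summed. To obtain those frequencies, a pooled yeast library of GFP fusions to tiled 17-residue yeast protein peptides, on a plasmid also expressing Cherry, was grown to mid-log phase in leucine-free medium. The cells were sorted into four equal gates by GFP/Cherry ratio before plasmid amplification by PCR and Illumina sequencing.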

**Q.** Which protein stability index does the source give for GLDQSRIPFSERKLKFS [FAS1] here?
**A.** 1.11 ± 0.085

Same assay, conditions: ubr1∆

**Q.** With FMDVITLDATNENFRLV [RPS4A] as the sequence, how does the protein stability index read?
**A.** 3 ± 0.18

**Q.** For FMGTAFNQEGDYNFKYG [PRP8], which protein stability index is on record?
**A.** 3.18 ± 0.072

**Q.** Which protein stability index does the source give for FNIISMTLKEMYQMITM [SMC4] here?
**A.** 2.15 ± 0.042

**Q.** For FNKYADPTLTTTTSFTT [RPN4], which protein stability index is on record?
**A.** 2.48 ± 0.029

**Q.** For FNRALDQSISKLQSWDK [NNF1], which protein stability index is on record?
**A.** 1.78 ± 0.051

**Q.** With FNYQGDELVLNFENDNE [REC8] as the sequence, how does the protein stability index read?
**A.** 2.63 ± 0.068

**Q.** With FPESIWKDFTVEIAFLF [YCG1] as the sequence, how does the protein stability index read?
**A.** 2.29 ± 0.049

**Q.** For FPFVLKVDNDLRIELQS [SRB8], which protein stability index is on record?
**A.** 3.31 ± 0.14

**Q.** With FPPPSVAARAEILRIHS [RPT6] as the sequence, how does the protein stability index read?
**A.** 1.74 ± 0.046

**Q.** With FPSIPLPINGPITNKER [RPC31] as the sequence, how does the protein stability index read?
**A.** 2.56 ± 0.11

**Q.** Which protein stability index does the source give for FPVDPTTPVKLGPGIYC [RRP40] here?
**A.** 2.2 ± 0.047

**Q.** With FPVSLSQPSKKSFANHT [SIR4] as the sequence, how does the protein stability index read?
**A.** 3 ± 0.039

**Q.** With FQDYLTQQAVNLEKNYL [IRR1] as the sequence, how does the protein stability index read?
**A.** 1.96 ± 0.11

**Q.** With FQEGVVVAKKDFNQAKH [RPS10A] as the sequence, how does the protein stability index read?
**A.** 2.79 ± 0.12

**Q.** With FQKFLTGHPKGAAGAWM [FAS2] as the sequence, how does the protein stability index read?
**A.** 1.56 ± 0.18

**Q.** For FQLLEPLSTYNKNGNAV [PGD1], which protein stability index is on record?
**A.** 2.74 ± 0.036

**Q.** Which protein stability index does the source give for FQNSKSASLFKQRKNPR [RPL24A] here?
**A.** 1.85 ± 0.053

**Q.** With FQTIFSKQDLIHSLIPV [SIN4] as the sequence, how does the protein stability index read?
**A.** 1.7 ± 0.05

**Q.** For FQTPFRRRREGKTDYYQ [RPL5], which protein stability index is on record?
**A.** 3.03 ± 0.11

**Q.** Which protein stability index does the source give for FREWQYFKLSITSFDQD [POP8] here?
**A.** 2.51 ± 0.045

**Q.** Which protein stability index does the source give for FRHHVQIQQQQQKQQQQ [SNF5] here?
**A.** 2.57 ± 0.083

**Q.** With FRYITTWENEFLDSQRV [PRP8] as the sequence, how does the protein stability index read?
**A.** 3.03 ± 0.046

**Q.** For FSISYKPPTQKTDTKVS [SRP21], which protein stability index is on record?
**A.** 2.11 ± 0.033

**Q.** For FSKKGNEPLSEIEIEGV [YAR002W/NUP60], which protein stability index is on record?
**A.** 3.15 ± 0.1

**Q.** With FSQFWYWFPLAHFLSLS [RPN2] as the sequence, how does the protein stability index read?
**A.** 1.19 ± 0.038

**Q.** Which protein stability index does the source give for FTAGARAKIVKAGGECI [RPL18A] here?
**A.** 1.13 ± 0.061

**Q.** With FTITVARKYLQTRWGLP [FAS2] as the sequence, how does the protein stability index read?
**A.** 1.96 ± 0.29

**Q.** Which protein stability index does the source give for FTKYKPARSSSLRSNVV [YAR002W/NUP60] here?
**A.** 2.7 ± 0.04

**Q.** With FVCEKSIEFAKREKRVF [RPN6] as the sequence, how does the protein stability index read?
**A.** 2.41 ± 0.25

**Q.** For FVCRGMAATQTIEQSPR [ECM29], which protein stability index is on record?
**A.** 1.56 ± 0.054

**Q.** With FVDENTFQRVCQYMVAC [RPN1] as the sequence, how does the protein stability index read?
**A.** 2.99 ± 0.091

**Q.** With FVEEQNVYVLPKNLLKK [PRP8] as the sequence, how does the protein stability index read?
**A.** 2.87 ± 0.059

**Q.** With FVFTNEPLTEIKNVIVS [RPP0] as the sequence, how does the protein stability index read?
**A.** 2.73 ± 0.077

**Q.** For FVKPGTALDAEGAARGT [DIS3], which protein stability index is on record?
**A.** 3.15 ± 0.097

**Q.** Which protein stability index does the source give for FVNETPRVIEPVYTAQW [PRP8] here?
**A.** 1.19 ± 0.1

**Q.** With FVNGVWHGVHRNPARLM [RPB2] as the sequence, how does the protein stability index read?
**A.** 1.5 ± 0.042

**Q.** Which protein stability index does the source give for FVSNMGFDIQKSCEPVS [SIR4] here?
**A.** 2.12 ± 0.075

**Q.** With FVSSGFDTSIKLDIISD [RPN14] as the sequence, how does the protein stability index read?
**A.** 2.44 ± 0.035

**Q.** Which protein stability index does the source give for FVSYFGKQIKSTIYNWG [YML103C/NUP188] here?
**A.** 1.6 ± 0.066

**Q.** Which protein stability index does the source give for FYKNKYSSKPYKVDNMT [RPN2] here?
**A.** 2.1 ± 0.075

**Q.** Which protein stability index does the source give for FYVQDVYKDNLSFIQVR [RPO31] here?
**A.** 1.88 ± 0.041

**Q.** For GAAPYAAKLKQTENDLK [RPT1], which protein stability index is on record?
**A.** 2.93 ± 0.19

**Q.** With GAGSIFTSHTRLRQGAA [RPL2A] as the sequence, how does the protein stability index read?
**A.** 3.25 ± 0.072

**Q.** For GALPPDLSLIVKARHGG [CYT1], which protein stability index is on record?
**A.** 2.23 ± 0.17

**Q.** Which protein stability index does the source give for GAMTPEEIFFKSVRILK [RPC40] here?
**A.** 3.22 ± 0.093

**Q.** Which protein stability index does the source give for GAVIQLLKSTGLHPFEV [RPB4] here?
**A.** 2.99 ± 0.084

**Q.** Which protein stability index does the source give for GCIKIYSSRVDSVTTET [BRN1] here?
**A.** 2.12 ± 0.17

**Q.** Which protein stability index does the source give for GDIESLFEQLQTVSNKE [SRP54] here?
**A.** 3.12 ± 0.046

**Q.** With GDLASLVLLNGRLRNKS [RPP1] as the sequence, how does the protein stability index read?
**A.** 2.81 ± 0.038

**Q.** For GDQFLRYVNLLGVTYSS [PRE4], which protein stability index is on record?
**A.** 2.02 ± 0.042

**Q.** With GDRGALARASGNYVIII [RPL2A] as the sequence, how does the protein stability index read?
**A.** 2.75 ± 0.14

**Q.** For GDRQRLGEEHPLQVARC [RPT1], which protein stability index is on record?
**A.** 1.53 ± 0.15

**Q.** For GDYSQATVLSRKILKKT [RPN5], which protein stability index is on record?
**A.** 2.95 ± 0.051

**Q.** Which protein stability index does the source give for GEIGDFFSSDWRFLQIL [POP1] here?
**A.** 2.55 ± 0.093

**Q.** Which protein stability index does the source give for GEIQLLFQRQKLHEFYL [IRR1] here?
**A.** 2.9 ± 0.16

**Q.** With GEITKTENEKFISYHDK [NUT1] as the sequence, how does the protein stability index read?
**A.** 3.17 ± 0.079

**Q.** For GEKNFTSAHLKLKEMQK [SMC4], which protein stability index is on record?
**A.** 3.14 ± 0.24

**Q.** With GEKNSDDYSNEDNEMLE [YJR042W/NUP85] as the sequence, how does the protein stability index read?
**A.** 1.89 ± 0.14

**Q.** Which protein stability index does the source give for GELFLNESWKSSFEKFN [SRP72] here?
**A.** 3.24 ± 0.073

**Q.** For GEQIIVHPVNEREPVPL [RRP45], which protein stability index is on record?
**A.** 2.9 ± 0.17

**Q.** Which protein stability index does the source give for GFIDASCIAVMAGLMHF [RRP45] here?
**A.** 1.46 ± 0.031

**Q.** With GFPSAPQPLFMEDPPST [YMR153W/NUP53] as the sequence, how does the protein stability index read?
**A.** 2.8 ± 0.052

**Q.** Which protein stability index does the source give for GGDSDANGTFMDFGVDP [RPN10] here?
**A.** 2.96 ± 0.25

**Q.** Which protein stability index does the source give for GGEKTVAALALLFAINS [SMC1] here?
**A.** 1.9 ± 0.14

**Q.** For GGESDSALILMYKGFGL [UBP6], which protein stability index is on record?
**A.** 3.29 ± 0.055

**Q.** With GGLKSCDLDFPLRENTN [YDL116W/NUP84] as the sequence, how does the protein stability index read?
**A.** 2.2 ± 0.057

**Q.** With GGLQKGKLVVSQEMVPR [SIR3] as the sequence, how does the protein stability index read?
**A.** 3.23 ± 0.12

**Q.** Which protein stability index does the source give for GGNFKDLSTLVHSSSPS [GAL11] here?
**A.** 1.38 ± 0.059

**Q.** For GGNSNKSPPQFFYNISS [SIN4], which protein stability index is on record?
**A.** 2.58 ± 0.041

**Q.** For GGRMFAPTKTWRKWNVK [RPL4A], which protein stability index is on record?
**A.** 2.16 ± 0.056

**Q.** For GGTSLFGNTSTSSAPAQ [YGL172W/NUP49], which protein stability index is on record?
**A.** 2.15 ± 0.091

**Q.** For GGVDVGPSVESYELRNT [SNF5], which protein stability index is on record?
**A.** 3.28 ± 0.079

**Q.** Which protein stability index does the source give for GHNDWVSQVRVVPNEKA [ASC1] here?
**A.** 2.69 ± 0.065

**Q.** Which protein stability index does the source give for GIEYNRVTNTTSTDFPG [RPC40] here?
**A.** 2.94 ± 0.096

**Q.** For GIHDGHIKKLLHQYYGD [FAS1], which protein stability index is on record?
**A.** 1.31 ± 0.03

**Q.** With GIIEPSLKALASKYNCD [RPL40A] as the sequence, how does the protein stability index read?
**A.** 3.19 ± 0.2

**Q.** With GIKAKHDKNIQKLLKQL [ISW2] as the sequence, how does the protein stability index read?
**A.** 2.79 ± 0.033

**Q.** For GIKVLPETCLFVSYFGK [YML103C/NUP188], which protein stability index is on record?
**A.** 2.68 ± 0.039

**Q.** Which protein stability index does the source give for GIKYHATPPLKRFKDME [SMC1] here?
**A.** 3.25 ± 0.076

**Q.** With GILLETISVPQIRDVME [RRP6] as the sequence, how does the protein stability index read?
**A.** 2.64 ± 0.067

**Q.** For GILYMGQGEQVDDVLET [RPN1], which protein stability index is on record?
**A.** 1.23 ± 0.11

**Q.** For GINNLSEIWDVSRGQSA [PRP8], which protein stability index is on record?
**A.** 2.26 ± 0.073

**Q.** Which protein stability index does the source give for GINSKSGKPFIAGFDLI [PUP3] here?
**A.** 3.06 ± 0.081

**Q.** Which protein stability index does the source give for GISEVQARKSKSVSFYA [RPT5] here?
**A.** 3.31 ± 0.063

**Q.** With GISMFDYISGISVGLYD [SKI6] as the sequence, how does the protein stability index read?
**A.** 2.1 ± 0.052

**Q.** For GISSTLVSANNDNNSPH [YLR018C/POM34], which protein stability index is on record?
**A.** 2.96 ± 0.067

**Q.** For GISVPFHSTYLMNGVKP [FAS1], which protein stability index is on record?
**A.** 1.39 ± 0.027

**Q.** With GKEFGDVSVKMGNTKVH [RRP45] as the sequence, how does the protein stability index read?
**A.** 1.95 ± 0.1

**Q.** With GKISKPRFLNKQERSKQ [PRP28] as the sequence, how does the protein stability index read?
**A.** 2.13 ± 0.088

**Q.** Which protein stability index does the source give for GKKASLNVGNVLPLGSV [RPL2A] here?
**A.** 2.56 ± 0.042

**Q.** With GKLEVPGYVDIVKTSSG [RPS19A] as the sequence, how does the protein stability index read?
**A.** 3.2 ± 0.06

**Q.** With GKLGQIDYALTAVKQGV [PRE8] as the sequence, how does the protein stability index read?
**A.** 2.54 ± 0.099

**Q.** With GKLISNLSSTPMETLLS [YML031W/NDC1] as the sequence, how does the protein stability index read?
**A.** 2.5 ± 0.063

**Q.** Which protein stability index does the source give for GKMVRAQDVALAKKWFL [PRP8] here?
**A.** 3.05 ± 0.24

**Q.** With GLDQSRIPFSERKLKFS [FAS1] as the sequence, how does the protein stability index read?
**A.** 1.12 ± 0.048
